Molecular target: human oxytocin receptor (human) (UniProt P30559)
UniProt P30559, sequence (P30559 whole entry): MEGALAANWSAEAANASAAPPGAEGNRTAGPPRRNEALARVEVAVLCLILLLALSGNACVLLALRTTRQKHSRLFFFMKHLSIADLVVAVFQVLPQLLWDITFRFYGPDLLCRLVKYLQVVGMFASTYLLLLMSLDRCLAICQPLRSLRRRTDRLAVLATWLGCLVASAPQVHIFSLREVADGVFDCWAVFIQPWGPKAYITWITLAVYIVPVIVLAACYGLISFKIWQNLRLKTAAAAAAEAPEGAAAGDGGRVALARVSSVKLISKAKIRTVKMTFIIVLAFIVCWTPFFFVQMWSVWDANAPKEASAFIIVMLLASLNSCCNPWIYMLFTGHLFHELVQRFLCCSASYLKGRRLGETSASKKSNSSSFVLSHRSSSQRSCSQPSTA

Question: How did the EC50 Ca2+ production turn out when Oxytocin (peptide) was run?
Answer: 42 nM

From patent US20190328887A1
